Results as given in PMC9723502.

Molecular target: CsrA-His10 (Escherichia coli K-12, UniProt P69913 1-61)
Assay: EMSA

GGGUUCAGGGACGUCAUUACGGGCAGGAUUGCCCACCC (structured_RNA) [FimR2-G23A-G24U]
binding result: no binding

GGGUUCAAAGACGUCAUUACGGGCAGGGAUGCCCACCC (structured_RNA) [FimR2 ssRegion mutant]
binding result: binds
